US8513188B2, “Formulations comprising cyclic compounds” (priority 2006, dated 2013)

What was measured:
mice = assay: In vivo insulin delivery in mice by sub-lingual administration, blood glucose decrease; settings: dose 1, sublingual
Protocol: Dose 1: 0.5 mg of desalted human insulin with TFA counter-ions (corresponds to 0.4 mg of non treated standard insulin) are mixed with 60 mg of 18-crown-6. […] The final volume is approximately 310 μl.
The final volume is approximately 310 μl.
Mice were treated with 6.5 μl of mixture 1 and 2, respectively. In dose 1, each mouse was treated with approximately 10 μg of desalted human insulin with TFA counter-ions (corresponds to 8 μg of non treated standard insulin). In dose 2, each mouse was treated with approximately 52 μg of desalted human insulin with TFA counter-ions (corresponds to 41.6 μg of non treated standard insulin).
Results: Insulin Delivery is Measured by Blood Glucose Decrease.

Caco-2 cells [1] = settings: insulin incorporated into liposome according to Sigma preparation, no 18-crown-6
Protocol: Liposomes were purchased from Sigma-Aldrich (pre-liposome formulation 8; product No. L3531) and used according to the following procedure. Alternatively, same ingredients were purchased by other suppliers (Avanti), and liposomes were prepared according the procedure indicated by Sigma. Insulin passage was measured by HPLC injection of samples in the receiving chamber.
The organic mixture containing insulin was mixed with the lipid mixture of Sigma, then solvent was evaporated or lyophilized. Water addition generated liposomes that were tested for delivery in Caco-2 cells.

[2] = dose 2: 2.6 mg desalted human insulin + 60 mg 18-crown-6 in about 310 ul mixture
Protocol: Dose 2: 2.6 mg of desalted human insulin with TFA counter-ions are mixed with 60 mg of 18-crown-6. To these solids, 250 μl of a mixture is added, the mixture being composed of 200 μl of a 50% mixture of Propylen glycole and 50% glycerol, 200 mg of mono-decanoyl-glycerol and 100 μl of Cremofor EL. The final volume is approximately 310 μl.

Caco-2 cells [3] = settings: insulin at same concentration in physiological buffer, without formulation agent and organic vehicle
Protocol: Should insulin pass through the Caco-2 cell lines, it is found in the receiving chamber.
Insulin Concentration: 3 mg in 125 μl of olive oil/Peg, 92%/8%, v/v
Vehicle: olive oil/Peg (esaethylenglycol)
Positive control: Ibuprofen: 1 mg in 125 μl physiological buffer.
After vortex, 50 μl of the final mixture are added to the caco-2 cell well in double.
Active Sample Preparation (Insulin with Vehicle & Formulation Agent)
After MeOH evaporation, 115 μl of olive oil and 10 μl Peg are added. Vortex for 2-3 minutes. After vortex, 50 μl of the final mixture are added to the Caco-2 cell well in double.
Control (Insulin with Formulation Agent in Physiological Buffer; No Organic or Non-Aqueous Vehicle Present)
Vortex the mixture for 2-3 minutes. […] Then methanol is evaporated and 125 μl of physiological buffer are added; 50 μl of the above solution are added to the Caco-2 cell well in double.

[4] = Dissolution of protein Rantes in organic medium (DCM/MeOH), HPLC of supernatant; assay type: physicochemical; settings: for presence of protein in HPLC trace of supernatant: centrifuged
Protocol: Two samples of 0.2 mg each of the folded protein Rantes were taken. One sample was used as standard and dissolved in a fixed volume (300 ul) of water/acetonitrile 50% v/v and 30 ul where injected onto HPLC (FIG. 6, HPLC section A) .
The second sample was suspended in a mixture of DCM/MeOH 70%30% VN, (300 ul). The suspension with solid particles was centrifuged and the surnatant injected onto HPLC volume (30 ul).
Then, 2.0 mg of Nonactine were added and the mixture was vortexed. […] Then, the mixture was centrifuged and 30 ul of the supernatant were injected onto HPLC. […] In the HPLC section C the protein has a different retention time (early elution) from the standard in section A. This phenomenon could be explained by the high percentage of organic solvents (like CH2Cl2 depicted in the figure) that carried through the protein complex with nonactine causing early elution.

## Insulin: human insulin, previously desalted; with TFA counter-ions in Example 8
mice; about 10 ug desalted human insulin with 18-crown-6, compared with IP injection
  effect on blood glucose (insulin delivery): close to the effects of IP injection
mice; dose about 7 times the injected control dose
  actual delivery: around 10%
Caco-2 cells [1]
  insulin passage through Caco-2 cells: did not result measurable insulin passage
[2]
  solubility of insulin in the dose mixture: precipitation of insulin occurred
Caco-2 cells [3]
  insulin passage across Caco-2 cells: does not cross caco-2 cells

## Rantes: folded protein Rantes, a chemokine
[4]; 0.2 mg Rantes suspended in 300 ul DCM/MeOH 70%/30%, no Nonactine
  presence of protein in HPLC trace of supernatant: no presence of the protein in the chromatogram

## C[C@@H]1C[C@H]2CC[C@H](O2)[C@H](C)C(=O)O[C@@H](C)C[C@@H]2CC[C@@H](O2)[C@@H](C)C(=O)O[C@H](C)C[C@H]2CC[C@@H](O2)[C@H](C)C(=O)O[C@@H](C)C[C@@H]2CC[C@@H](O2)[C@@H](C)C(=O)O1 [Nonactine]
[4]; 0.2 mg Rantes in 300 ul DCM/MeOH 70%/30% + 2.0 mg Nonactine, versus water/acetonitrile standard
  presence of protein in HPLC trace of supernatant: presence of the peptide in similar proportion as per the area of the standard
[4]; 0.2 mg Rantes in 300 ul DCM/MeOH 70%/30% + 2.0 mg Nonactine, vortexed
  appearance of the mixture after addition of Nonactine: clear solution
